The text below walks through data of US20250108091A1, “PROTEIN FORMULATION, PREPARATION METHOD THEREFOR AND USE THEREOF” (BEIJING LIANGYUAN BIO-SCIENCE, LLC, priority 2022, published 2025).

One series deals with T1, IL-2 protein (Homo sapiens, UniProt P60568, C145S).
T1 construct: made in house; host or cells: Escherichia coli
Description: Isothermal titration calorimetry (ITC), interaction with IL-2. In kind it is binding. The following applies: SDS with IL-2, 7.69 mM sodium phosphate buffer, 25° C.; read-out: equilibrium dissociation constant Kd. The protocol: (1) Preparation of samples: • A. PEG2000-DSPE solution: dissolved in 10 mM sodium acetate buffer (pH=5.5), with a concentration of 0.5 mM; • B. SDS solution: dissolved in 7.69 mM sodium phosphate buffer (pH=7.6), with a concentration of 1.73 mM; • C. IL-2 solution: dissolved in 10 mM sodium acetate buffer (pH=5.5), with a concentration of 0.005 mM; • D. IL-2 solution: dissolved in 7.69 mM sodium phosphate buffer (pH=7.0), with a concentration of 0.0164 mM.
10 The MicroCal ITC 200 isothermal titration calorimeter and its supporting operating software from Malvern Panalytical Company were used. Refer to the table below for specific parameter settings:
(3) To determine the interaction between PEG2000-PE and IL-2, 40 μl sample A was added to the syringe, and 250 μl sample C was added to the sample cell. To determine the interaction between SDS and IL-2, 40 μl sample B was added to the syringe, and 250 μl sample D was added to the cell. […] After the reaction was completed, the measured heat change was integrated and subjected to reaction curve fitting (FIG. 4) to calculate various parameters of the interaction between the two samples, wherein the K value measured in the ITC is the binding constant, with a unit of M-1, and its reciprocal is the dissociation constant Kd of the two substances, with a unit of M. The smaller the Kd value, the stronger the affinity between the two substances.
(In general: ITC needs no label: the signal is the heat of the interaction.)

The target in a further series is T2, βγ dimer (Homo sapiens, UniProt P14784+P31785).
T2 sequence (P14784 27-551): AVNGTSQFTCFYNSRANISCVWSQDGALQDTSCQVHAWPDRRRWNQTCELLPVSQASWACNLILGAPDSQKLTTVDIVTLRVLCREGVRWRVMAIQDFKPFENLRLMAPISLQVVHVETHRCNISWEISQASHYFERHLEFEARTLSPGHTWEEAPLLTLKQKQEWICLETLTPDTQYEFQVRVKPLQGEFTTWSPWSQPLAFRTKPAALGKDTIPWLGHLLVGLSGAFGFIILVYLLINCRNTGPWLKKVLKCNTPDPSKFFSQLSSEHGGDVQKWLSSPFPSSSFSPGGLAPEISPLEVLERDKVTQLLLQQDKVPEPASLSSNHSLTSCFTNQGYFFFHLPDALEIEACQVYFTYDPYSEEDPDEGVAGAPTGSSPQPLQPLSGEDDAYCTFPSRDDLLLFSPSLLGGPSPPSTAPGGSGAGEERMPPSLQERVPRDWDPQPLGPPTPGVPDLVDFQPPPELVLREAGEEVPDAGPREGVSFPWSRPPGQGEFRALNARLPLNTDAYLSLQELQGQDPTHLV
T2 sequence (P31785 23-369): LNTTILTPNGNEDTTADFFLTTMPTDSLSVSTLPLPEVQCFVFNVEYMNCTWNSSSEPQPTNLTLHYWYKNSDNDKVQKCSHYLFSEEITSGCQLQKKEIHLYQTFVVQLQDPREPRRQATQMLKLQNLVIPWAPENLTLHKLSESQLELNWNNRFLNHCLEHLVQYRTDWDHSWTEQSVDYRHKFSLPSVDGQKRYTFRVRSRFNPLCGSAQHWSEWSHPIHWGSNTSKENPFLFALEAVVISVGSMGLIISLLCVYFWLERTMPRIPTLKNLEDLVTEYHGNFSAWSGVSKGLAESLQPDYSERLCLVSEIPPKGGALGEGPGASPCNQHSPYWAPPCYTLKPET
The following applies: medium affinity; cited from earlier work.

For series [1] the following is noted: in serum in vivo; cited from earlier work.

T1 sequence (P60568 21-153 C145S): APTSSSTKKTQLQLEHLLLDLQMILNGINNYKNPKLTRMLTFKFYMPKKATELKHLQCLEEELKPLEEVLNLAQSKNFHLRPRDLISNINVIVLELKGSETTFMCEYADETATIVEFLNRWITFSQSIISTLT

One may read the Kd as a measure of binding affinity in units of concentration. Take `CCCCCCCCCCCCOS(=O)(=O)[O-].[Na+]` [SDS, sodium dodecyl sulfate]: the equilibrium dissociation constant (Kd) at IL-2 protein is approximately 37.3 µM. For orientation: half-life means how long it takes for the measured level to halve. For “IL2: T cell growth factor, glycoprotein of four α-helices, molecular weight 15.5 Kd”, the Kd with βγ dimer was approximately 0.001 µM. For the same molecule, in series [1], the half-life was 10 to 85 min.
